According to the supplement of paper PMC12042874:
± gives the uncertainty stated by the source.

Experiment: amyloid nucleation score (Sup35N fusion, yeast selection) (log enrichment); library NNK3; higher = more nucleation; inactive = no reads after selection
Method in brief: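 Three technical output replicates were used for random libraries. Psi-negative yeast expressing peptides of 20 random codons fused to Sup35N were induced with 100 μM copper sulfate for 24 hours and grown 7 days at 30°C on medium lacking adenine and uracil, and input and output plasmid inserts were Illumina-sequenced, excluding sequences with under 100 input reads. The nucleation score is the DiMSum log enrichment of output over input reads, centred on the mode score of non-aggregating sequences.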
With LDEGPPSAWVFATKTNFCES the amyloid nucleation score was “inactive”. In the case of GDSNTSRLCAPSMRNVKAQL, the amyloid nucleation score is reported as “inactive”. With IFNNYIIYTSYKEV the amyloid nucleation score was 3.49 ± 0.077. For LNLVRNWTISAAGKVALKWS, the amyloid nucleation score was “inactive”. With LYELGQKFLVGHWQRGLKP the amyloid nucleation score was “inactive”. For VSYKKDCMQTSLRLVITF, the amyloid nucleation score was “inactive”. With SGKSFNVTGLPCMAWCRATD the amyloid nucleation score was “inactive”. With CKFSDW the amyloid nucleation score was “inactive”. For WYFPTQ, the amyloid nucleation score was “inactive”. In the case of VYWTEWTCMDIDGIQFLVNV, the amyloid nucleation score is reported as “inactive”. In the case of SACECAPTTSRIRPGSSATR, the amyloid nucleation score is reported as “inactive”. For VYCLRWKLYMLNEVS, the amyloid nucleation score was “inactive”. In the case of LLRVSYFIVLRTLN, the amyloid nucleation score is reported as “inactive”. In the case of SHVWFDRGLIETEMSAHRY, the amyloid nucleation score is reported as “inactive”. For RQLTLSRITNLSLK, the amyloid nucleation score was “inactive”. For DNRYVY, the amyloid nucleation score was “inactive”. In the case of CLTYRSG, the amyloid nucleation score is reported as “inactive”. With LLSVTCTG the amyloid nucleation score was “inactive”. RVRQTFCIW gave an amyloid nucleation score of 1.75 ± 0.11. For YSLVYAYMESTMYYCLGLRM, the amyloid nucleation score was “inactive”. Work on SLWIYTMSYCLSWNYDCFG yielded an amyloid nucleation score of 0.669 ± 0.17. Work on MQLDLMCCLVSCTMNTFSSR yielded an amyloid nucleation score of 1.54 ± 0.11. With ASIHMFVLYRWSFG the amyloid nucleation score was 0.013 ± 0.75. For TTRRVGCLMGFLVDFRIKSC, the amyloid nucleation score was “inactive”. With SRWPGHNYISQYGGYLLIFY the amyloid nucleation score was 2.02 ± 0.071. In the case of RIKSSTYSMSLVGAQ, the amyloid nucleation score is reported as “inactive”. For MWDIGGARAKDCEGLSVNCI, the amyloid nucleation score was “inactive”. With ATFQSRFFCCRSRGGTLGCD the amyloid nucleation score was “inactive”. For NESFDCPFAGLYRKQYIWQT, the amyloid nucleation score was “inactive”. NLNRSLVFFSCDYAGCDGCT gave an amyloid nucleation score of 1.48 ± 0.077. With YYNDSPAFHLRVR the amyloid nucleation score was “inactive”. With ADVDCFTVNLVYSRYAFVTT the amyloid nucleation score was “inactive”. For CVMCG, the amyloid nucleation score was “inactive”. Work on IWWNIYCFTVTSSVD yielded an amyloid nucleation score of 2.21 ± 0.095. For IYMSRKSLVMDVWQRHRDKE, the amyloid nucleation score was “inactive”. With SREDCGGI the amyloid nucleation score was “inactive”. In the case of IVCHHRDYFLAYYYEMLHCR, the amyloid nucleation score is reported as “inactive”. In the case of IFCVGVSLRQ, the amyloid nucleation score is reported as 0.347 ± 0.3. For SNPHIILID, the amyloid nucleation score was “inactive”. With IYGLLVDRRAVIFFEYMHLV the amyloid nucleation score was “inactive”. In the case of QNMFSSANRLMSTC, the amyloid nucleation score is reported as “inactive”. For LYSFSANNDMVHMYRNQVRF, the amyloid nucleation score was “inactive”. FYFNYFIRMCNITCDI gave an amyloid nucleation score of 2.73 ± 0.05. VRHNLLGCLLGSFLGASSNR showed an amyloid nucleation score of -0.306 ± 0.37. With DKELKPNFRWGRNFYSFYIC the amyloid nucleation score was “inactive”. For VTLMLSITSP, the amyloid nucleation score was “inactive”. For NEIQAYIRWSI, the amyloid nucleation score was “inactive”. In the case of NYVCGVIAVNVVMNSSNNWR, the amyloid nucleation score is reported as 2.66 ± 0.051. For VMTAVRAD, the amyloid nucleation score was “inactive”. For VYRWVC, the amyloid nucleation score was “inactive”. In the case of FDVELALWC, the amyloid nucleation score is reported as “inactive”. With GQKDCYFLIMYIREVLNRYT the amyloid nucleation score was “inactive”. Substance IYVTIEFASIVCSCWESLDR has an amyloid nucleation score of -0.091 ± 0.8. For SNYICTYIQKFSIVYCIPSH, the amyloid nucleation score was 1.96 ± 0.08. With ESTYVDGRNTVNDYCPNSTI the amyloid nucleation score was “inactive”. LNYEIWNISRFRTFFTGVSA showed an amyloid nucleation score of -0.332 ± 0.73. TITFSWLAYAVGMQPDNNEV gave an amyloid nucleation score of 1.26 ± 0.12. NRVAYTAQCQIIFCVGGYCL gave an amyloid nucleation score of 2.72 ± 0.069. With CSLQLASDQGFSQRDDCTVH the amyloid nucleation score was “inactive”. In the case of CALGEKLFSGSAYMVYPG, the amyloid nucleation score is reported as “inactive”. For YRINDKSFNVISGIVFSVVR, the amyloid nucleation score was “inactive”. With VPNDKVGKLRIMGREWVRSH the amyloid nucleation score was “inactive”. For WENCKFWRTLPISVHEGHLD, the amyloid nucleation score was “inactive”. With TYPTYRVWVEEQCRLYDTNR the amyloid nucleation score was “inactive”. For MTNLCRRVGKKFPNRSHSGY, the amyloid nucleation score was “inactive”. For ELLWNLRGNFDIDLGSFIRT, the amyloid nucleation score was “inactive”. For LSEFYPAMRSTTTPVQNVSG, the amyloid nucleation score was “inactive”. With SDGVGQLDSDVHSGGGDNRQ the amyloid nucleation score was “inactive”. In the case of LDWLICSWGN, the amyloid nucleation score is reported as “inactive”. For FPWSSRATRSGEVTV, the amyloid nucleation score was “inactive”. With MRFSKGNYLYMREGHKGFCG the amyloid nucleation score was “inactive”. With LVKRCVVGFTHFPTIYTCIQ the amyloid nucleation score was “inactive”. SFRYAYWLSNNCH showed an amyloid nucleation score of 0.378 ± 0.4. For YVCCYARNDRRFSWERRHLS, the amyloid nucleation score was “inactive”. With DMGKKSSLGNKWVIREAHMG the amyloid nucleation score was “inactive”. For WQLEKIDDDYLRVTVDEPSE, the amyloid nucleation score was “inactive”. In the case of QIHNRTMPCWRSKATVLGKT, the amyloid nucleation score is reported as “inactive”. For IDVRATNPVRAVETD, the amyloid nucleation score was “inactive”. For SNCRNQFRERVLIAGVLWVV, the amyloid nucleation score was “inactive”.
